{
  "source": "the RNAGym collection of RNA variant scans (doi:10.1073/pnas.2313332121)",
  "parents": {"B1": {"name": "TPR t1 (parent)", "chain": "GACCAAUCUGCCCUCAGAGCUCGAGAACAUCUUCGGAUGCAGAGGAGGCAGGCUUCGGUGGCGCGAUAGCGCCAACGUCCUCAACCUCCAAUGCAUCCCACCACAUGAUGAUGCCUGAAGAGCCUUGGUUUUUUG"}},
  "data": [
    {"variants_of": "B1", "experiment": "polymerase ribozyme fitness, log enrichment relative to wild type (log ratio); higher = more active; in vitro selection for triplet polymerase activity", "summary_of_the_method": "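Fitness measures genotype enrichment against wild-type enrichment on a logarithmic scale, with inverse-variance-weighted averaging of replicates. The logarithm is base 2, and genotypes were kept only with ≥10 input reads and ≥1 read per output in Illumina sequencing. The sequenced libraries came from one triplicate in vitro selection round, including frozen incubation at −7 °C, of PCR-built, transcribed mutant libraries of each subunit of a heterodimeric triplet polymerase ribozyme.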", "values": [
      {"variant": "GACCAAUCUGCCCUGAGAGCUCGAGAACAUCUUCGGAUGUAGAGGAGGCAGGCUUCGGUGACGCGAUAGCGCCAACGUCCUCAACCUCUACUGCAUCCCACCACAUGAUGAUGCCUGAAGAGGCUUGGUUUUUUG", "note": "[C15G C40U G61A C89U A91C C123G]", "polymerase ribozyme fitness (log ratio)": -0.621},
      {"variant": "GACCAAUCUGCCCUGAGAGCUCGAGACCAUCUUCGGAUGCGGAGGAGGCAGGCUUCGGUGGCGCGAUAGCGCCAACGUCCUCAACCUCCAAUGCAUCCCACCACAUGAUGAUGUCCGAAGAGCCUUGGUUUUUUG", "note": "[C15G A27C A41G C114U U116C]", "polymerase ribozyme fitness (log ratio)": -7.35},
      {"variant": "GACCAAUCUGCCCUGAGAGCUCGAGAACAUCUUCGGUUGCAGAGGAGUCAGGCUUCGGUGGCGCGAUAGCGCCAACUUCCUCAACCUCCAAUGCAUCCCACCACAUGAUGAUGCCUGAAGAACCUUGGUUUUUUG", "note": "[C15G A37U G48U G77U G122A]", "polymerase ribozyme fitness (log ratio)": -4.17},
      {"variant": "GACCAAUCUGCCCUGAGAGUUCGAGAACAUCUUCGGAUGCAGAGGAGGCAGGCUUCGGUGGAGCGAUAGCGCCAACGUCCUCAACCUCCAAUGCAUCCCACCACAUGAUGAUGCCUUAAGAGCCUUGGUUUUUUG", "note": "[C15G C20U C62A G117U]", "polymerase ribozyme fitness (log ratio)": -3.55},
      {"variant": "GACCAAUCUGCCCUGAGAGCUCGAGAGCAUCUUCGGAUGCAGAGGAGGCAGGCUUCGGUGGCGCGAUAGCGCCAACGUCCUCAACCUCCAAUGCGUCCCACCACAUGAUUAUGCCUGAAGAGCCUUGGUUUUUUG", "note": "[C15G A27G A95G G110U]", "polymerase ribozyme fitness (log ratio)": -5.6},
      {"variant": "GACCAAUCUGCCCUGAGAGCUCGAGAACAUCUUCGGAUGCAGAGGAGGCAGGCUUUGGUGGCGCGAUAGCGCCAACGUCCUCAACCUCCAAUGCAUCCCACCACAUGAUGAUGCCUGAAGAGCCUUGGUUUUUUG", "note": "[C15G C56U]", "polymerase ribozyme fitness (log ratio)": -2.17},
      {"variant": "GACCAAUCUGCCCUGAGAGCUCGAGAACAUCUUCGGAUGCAGAGGAGGCAGGCUUCGGUGGCGCGAUAGCGCCAACGUCCUCGACCUCCAAUGCAUCCCACCACAUGAUGAUGCCUGAACAGCCUUGGUUUUUUG", "note": "[C15G A83G G120C]", "polymerase ribozyme fitness (log ratio)": -2.3},
      {"variant": "GACCAAUCUGCCCUGAGAGAUCGAGAACAUCUUCGGAUGCAGAGGAGGCAGGCUUCGGUGGCGCGAUAUCGCCAACGUCCACAACCUCCAAUGCAUCCCACCACAUGAUGAUGCCUGAAGAGCAUUGGUUUUUUG", "note": "[C15G C20A G69U U81A C124A]", "polymerase ribozyme fitness (log ratio)": -1.08},
      {"variant": "GACCAAUCUGCCCUAAGAGCUCGAGAACAUCUUCGGAUGCAGAGGAGGCAGGCUUCGGUGGCGCGAUAGCGCCAACGUCCUCAACCUCCAAUGCAUCCCACCACAUGAUGAUGCCUGAAGAGCCUUGGUUUUGUG", "note": "[C15A U133G]", "polymerase ribozyme fitness (log ratio)": -3.68},
      {"variant": "GACCAAUCUGCCCUGUGAGCUCGAGAACAUCUUCGGAUGCAGAGGAGGCAGGCUUCGGUGUCGCGAUAGCGCCAACGUCCUCAACCUCCAAUGCAUCCCACCACAUGAUGAUGCCUGAAGAUUCUUGGUUUUUUG", "note": "[C15G A16U G61U G122U C123U]", "polymerase ribozyme fitness (log ratio)": -2.55},
      {"variant": "GACCAAUCUGCCCUGAGAGCUCGAGAACAUCUUCGGAUGCAGUGGAGGCAGGCUUCGGUGGCGCGAUAGCGCCAACGUCCUCAACCUCCAAUGCAUCCCACCACAUGAUGAUGCCUGAAGAGCCUUGGUUUUUUG", "note": "[C15G A43U]", "polymerase ribozyme fitness (log ratio)": -3.43},
      {"variant": "GACCAAUCUGCCCUGAGAGCUCGAGAACAUCUUCGGAUGCAGAGGAGGCAGGCUUCGGUGGUGCGAUAGCGCCAACGUCCUCAACCUCCGAUGCAUCCCACCACAUGAUGAUGCCUGAAGAGCCUAGGUUUUUUG", "note": "[C15G C62U A90G U126A]", "polymerase ribozyme fitness (log ratio)": -3.64},
      {"variant": "GACCAAUCUGCCCUGAGAGCUCGAGAACCUCUUCGGAUGCAGAGGAGGCAGGCUUCGGUGGCGCGAUAGCCCCAACGUCCUCAACUUCCAAUGCAUCCCACCACAUGAUGAUUCCUGAAUAGCCUUGGAUUUUUG", "note": "[C15G A29C G71C C86U G113U G120U U129A]", "polymerase ribozyme fitness (log ratio)": -6.08},
      {"variant": "GACCAAUCUGCCCUGAGAGCUCGAGAACAUCUUCGGAUGCAGAGGAGGCAGGCUUCGGUGGCGCGAUAGCGCGAACGUCCUCAACCUUCAAUGCAUCCCACCACAUGAUGAUGCCGGAAGAGCCUUGGUUUUUUG", "note": "[C15G C73G C88U U116G]", "polymerase ribozyme fitness (log ratio)": -3.52},
      {"variant": "GACCAAUCUGCCCUGAGAGCUCGAGAACAUCUUCGGAUGCAGAGGAGGCAGGGUUCGGUAGCGCGAUAGCGCCAACGUCCUCAACCUCCAAUGCAUCCCACCACAUGAUGAUGCCUGAAGAGCCUUGGUUUUUUG", "note": "[C15G C53G G60A]", "polymerase ribozyme fitness (log ratio)": -3.25},
      {"variant": "GACCAAUCUGCCCUGAGAGCUCGAGAACAUCUUCGGAUGCAGAGGAGGCAGGCUUCGGUGGCGCGAUAGCGCCAACGUCCUCAACCUCCAAUGCUUCCCACCACAUGAUGAUGCCGGAAGAGCCUUGGUUUUUUG", "note": "[C15G A95U U116G]", "polymerase ribozyme fitness (log ratio)": -2.63},
      {"variant": "GACCAAUCUGCCCUGAGAGCUCGAGAACAUCUUCGGAUGAAGAGGAGGCAGGCUUCGGUGGCGCGAUAGCGCCAAGCUCCUCAACCUCCAAUGCAUCCCACCACAUGAUGAUGCCUCAAGAGCCUUGGUUUUUUG", "note": "[C15G C40A C76G G77C G117C]", "polymerase ribozyme fitness (log ratio)": -0.354},
      {"variant": "GACCAAUCUGCCCUGAGAGCUCGAGCACAUCUUCGGAUGCAGAGGAGGCAGGCGUCGGUGGCGCGAUAGCUCCAACGUCCUCAACCUCCAAUGCAUCCCACCACAUGAUGAUGUCUGAAGAGCCUUGGUUUUUUG", "note": "[C15G A26C U54G G71U C114U]", "polymerase ribozyme fitness (log ratio)": -5.95},
      {"variant": "GACCAAUCUGCCCUGAGAGCUCGAGAACAUCUUCGGAUGCAGAGGAGGCAGGCUUCGGUGGCGCGAUAGCGCCAACGUCCUCAACCUCCAAUGCAUCCCACCACAUGAUGAUGCCUGAGGAGCCUUGGUUUUUUG", "note": "[C15G A119G]", "polymerase ribozyme fitness (log ratio)": 0.41},
      {"variant": "GACCAAUCUGCCCUGAGAGCUCGAGAACAUCUUCGGAUGCAGAGGAGGUAGGCUUCGGUGGCGCGAUAGCGCCAACGUCCUCAACCUCCAAUGCAUCCCACCACAAGAUGAUGCCUGAAGAGCCUUGGUUUUUUG", "note": "[C15G C49U U106A]", "polymerase ribozyme fitness (log ratio)": -3.74},
      {"variant": "GACCAAUCUGCCCUGAGAGUUCGAGAACAUCUUCGGAUGCAGAGGAGGCAGGCUUCGGUGGCGCGAUAGCGCCAACGUCCUCAACCUCCAAUGCAUCCCACCACAUGAUGAUGCCUGAAGAGCCUUGGUUUUUUG", "note": "[C15G C20U]", "polymerase ribozyme fitness (log ratio)": -2.98}
    ]}
  ]
}
